# Reference: patent publication US20150344570A1 (published 2015)
# T1: FcγRIIa H (FcγRIIa type H, His at position 131), extracellular domain with C-terminal His tag (human, UniProt P12318 34-217)
# T1 construct: extracellular domain; expressed in FreeStyle293 cells; also called FcgRIIa H; 2aH; not shown: His tag attached to the C terminus
# T1 sequence (looked up): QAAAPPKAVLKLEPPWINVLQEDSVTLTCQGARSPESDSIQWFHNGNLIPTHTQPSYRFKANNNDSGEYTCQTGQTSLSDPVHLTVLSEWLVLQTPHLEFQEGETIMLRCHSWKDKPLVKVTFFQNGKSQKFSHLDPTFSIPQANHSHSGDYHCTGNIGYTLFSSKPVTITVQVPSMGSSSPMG
# T2: FcγRIIb extracellular domain with C-terminal His tag (human, UniProt P31994 43-217)
# T2 construct: extracellular domain; Soluble receptor used as analyte in Biacore; also called FcgRIIb
# T2 sequence (looked up): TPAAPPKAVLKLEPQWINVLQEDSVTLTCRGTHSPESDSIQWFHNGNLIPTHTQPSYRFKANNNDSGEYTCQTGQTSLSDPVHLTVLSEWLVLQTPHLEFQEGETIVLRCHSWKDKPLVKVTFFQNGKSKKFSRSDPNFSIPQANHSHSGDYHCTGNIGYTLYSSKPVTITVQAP
# T3: FcγRIIb, extracellular domain with C-terminal His tag (human, UniProt P31994 43-217)
# T3 construct: extracellular domain; expressed in FreeStyle293 cells; also called FcgRIIb; 2b; not shown: His tag attached to the C terminus
# T3 sequence (looked up): T2 sequence (looked up)
# B1: GpH7-A5/GpH7-B3 variant S267_09D/GpL16-k0 (antibody, human IgG1, kappa)
# heavy 1: not shown
# heavy 2: not shown
# light: DIVMTQSPLSLPVTPGEPASISCQASESLVHSNRNTYLHWYLQKPGQSPQLLIYKVSNRFSGVPDRFSGSGSGTDFTLKISRVEAEDVGVYYCSQNTHVPPTFGQGTKVEIERTVAAPSVFIFPPSDEQLKSGTASVVCLLNNFYPREAKVQWKVDNALQSGNSQESVTEQDSKDSTYSLSSTLTLSKADYEKHKVYACEVTHQGLSSPVTKSFNRGEC
# notes: Heterodimerized IgG1, mutation in the GpH7-B3 chain only; also called He Ab
# B2: GpH7-A5/GpH7-B3 variant V266_08L/GpL16-k0 (antibody, human IgG1, kappa)
# heavy 1: not shown
# heavy 2: not shown
# light: B1 light
# notes: as for B1
# B3: GpH7-A5/GpH7-B3 variant P271_01G/GpL16-k0 (antibody, human IgG1, kappa)
# heavy 1: not shown
# heavy 2: not shown
# light: B1 light
# notes: as for B1
# B4: GpH7-A5/GpH7-B3 variant S267_06M/GpL16-k0 (antibody, human IgG1, kappa)
# heavy 1: not shown
# heavy 2: not shown
# light: B1 light
# notes: as for B1
# B5: GpH7-A5/GpH7-B3 variant S267_03V/GpL16-k0 (antibody, human IgG1, kappa)
# heavy 1: not shown
# heavy 2: not shown
# light: B1 light
# notes: as for B1
# B6: GpH7-A5/GpH7-B3 variant S267_02A/GpL16-k0 (antibody, human IgG1, kappa)
# heavy 1: not shown
# heavy 2: not shown
# light: B1 light
# notes: as for B1
# B7: GpH7-A5/GpH7-B3 variant K326_14T/GpL16-k0 (antibody, human IgG1, kappa)
# heavy 1: not shown
# heavy 2: not shown
# light: B1 light
# notes: as for B1
# B8: GpH7-A5/GpH7-B3 variant S267_19Q/GpL16-k0 (antibody, human IgG1, kappa)
# heavy 1: not shown
# heavy 2: not shown
# light: B1 light
# notes: as for B1
# B9: GpH7-A5/GpH7-B3 variant V266_12R/GpL16-k0 (antibody, human IgG1, kappa)
# heavy 1: not shown
# heavy 2: not shown
# light: B1 light
# notes: as for B1
# B10: GpH7-A5/GpH7-B3 variant K326_15Y/GpL16-k0 (antibody, human IgG1, kappa)
# heavy 1: not shown
# heavy 2: not shown
# light: B1 light
# notes: as for B1
# B11: GpH7-A5/GpH7-B3 variant K326_08L/GpL16-k0 (antibody, human IgG1, kappa)
# heavy 1: not shown
# heavy 2: not shown
# light: B1 light
# notes: as for B1
# B12: GpH7-A5/GpH7-B3 variant S267_07I/GpL16-k0 (antibody, human IgG1, kappa)
# heavy 1: not shown
# heavy 2: not shown
# light: B1 light
# notes: as for B1
# B13: GpH7-A5/GpH7-B3 variant K326_19Q/GpL16-k0 (antibody, human IgG1, kappa)
# heavy 1: not shown
# heavy 2: not shown
# light: B1 light
# notes: as for B1
# B14: GpH7-A5/GpH7-B3 variant V266_07I/GpL16-k0 (antibody, human IgG1, kappa)
# heavy 1: not shown
# heavy 2: not shown
# light: B1 light
# notes: as for B1
# B15: GpH7-A5/GpH7-B3 variant K326_20W/GpL16-k0 (antibody, human IgG1, kappa)
# heavy 1: not shown
# heavy 2: not shown
# light: B1 light
# notes: as for B1
# B16: GpH7-A5/GpH7-B3 variant S267_10E/GpL16-k0 (antibody, human IgG1, kappa)
# heavy 1: not shown
# heavy 2: not shown
# light: B1 light
# notes: as for B1
# B17: GpH7-A5/GpH7-B3 variant K326_09D/GpL16-k0 (antibody, human IgG1, kappa)
# heavy 1: not shown
# heavy 2: not shown
# light: B1 light
# notes: as for B1
# B18: GpH7-A5/GpH7-B3 variant K326_10E/GpL16-k0 (antibody, human IgG1, kappa)
# heavy 1: not shown
# heavy 2: not shown
# light: B1 light
# notes: as for B1
# B19: GpH7-A5/GpH7-B3 variant P238_07I/GpL16-k0 (antibody, human IgG1, kappa)
# heavy 1: not shown
# heavy 2: not shown
# light: B1 light
# notes: Heterodimerized antibody (He Ab): mutation in the GpH7-B3 chain only; also called He Ab
# B20: GpH7-A5/GpH7-B3 variant P238_16H/GpL16-k0 (antibody, human IgG1, kappa)
# heavy 1: not shown
# heavy 2: not shown
# light: B1 light
# notes: as for B19
# B21: GpH7-A5/GpH7-B3 variant P238_14T/GpL16-k0 (antibody, human IgG1, kappa)
# heavy 1: not shown
# heavy 2: not shown
# light: B1 light
# notes: as for B19
# B22: GpH7-A5/GpH7-B3 variant P238_19Q/GpL16-k0 (antibody, human IgG1, kappa)
# heavy 1: not shown
# heavy 2: not shown
# light: B1 light
# notes: as for B19
# B23: GpH7-A5/GpH7-B3 variant P238_10E/GpL16-k0 (antibody, human IgG1, kappa)
# heavy 1: not shown
# heavy 2: not shown
# light: B1 light
# notes: as for B19
# B24: GpH7-A5/GpH7-B3 variant P238_18N/GpL16-k0 (antibody, human IgG1, kappa)
# heavy 1: not shown
# heavy 2: not shown
# light: B1 light
# notes: as for B19
# B25: GpH7-A5/GpH7-B3 variant P238_09D/GpL16-k0 (antibody, human IgG1, kappa)
# heavy 1: not shown
# heavy 2: not shown
# light: B1 light
# notes: as for B19
# B26: GpH7-A5/GpH7-B3 variant P238_13S/GpL16-k0 (antibody, human IgG1, kappa)
# heavy 1: not shown
# heavy 2: not shown
# light: B1 light
# notes: as for B19
# B27: GpH7-A5/GpH7-B3 variant P238_15Y/GpL16-k0 (antibody, human IgG1, kappa)
# heavy 1: not shown
# heavy 2: not shown
# light: B1 light
# notes: as for B19
# B28: GpH7-A5/GpH7-B3 variant P238_08L/GpL16-k0 (antibody, human IgG1, kappa)
# heavy 1: not shown
# heavy 2: not shown
# light: B1 light
# notes: as for B19
# B29: GpH7-A5/GpH7-B3 variant I332_02A/GpL16-k0 (antibody, human IgG1, kappa)
# heavy 1: not shown
# heavy 2: not shown
# light: B1 light
# notes: as for B1
# B30: GpH7-A5/GpH7-B3 variant P331_20W/GpL16-k0 (antibody, human IgG1, kappa)
# heavy 1: not shown
# heavy 2: not shown
# light: B1 light
# notes: as for B1
# B31: GpH7-A5/GpH7-B3 variant I332_06M/GpL16-k0 (antibody, human IgG1, kappa)
# heavy 1: not shown
# heavy 2: not shown
# light: B1 light
# notes: as for B1
# B32: GpH7-A5/GpH7-B3 variant I332_04F/GpL16-k0 (antibody, human IgG1, kappa)
# heavy 1: not shown
# heavy 2: not shown
# light: B1 light
# notes: as for B1
# B33: GpH7-A5/GpH7-B3 variant I332_14T/GpL16-k0 (antibody, human IgG1, kappa)
# heavy 1: not shown
# heavy 2: not shown
# light: B1 light
# notes: as for B1
# B34: GpH7-A5/GpH7-B3 variant I332_15Y/GpL16-k0 (antibody, human IgG1, kappa)
# heavy 1: not shown
# heavy 2: not shown
# light: B1 light
# notes: as for B1
# Target: T4, FcγRIa extracellular domain with C-terminal His tag (human, UniProt P12314 16-292)
# T4 construct: extracellular domain; Soluble receptor used as analyte in Biacore; also called FcgRI
# T4 sequence (P12314 16-292): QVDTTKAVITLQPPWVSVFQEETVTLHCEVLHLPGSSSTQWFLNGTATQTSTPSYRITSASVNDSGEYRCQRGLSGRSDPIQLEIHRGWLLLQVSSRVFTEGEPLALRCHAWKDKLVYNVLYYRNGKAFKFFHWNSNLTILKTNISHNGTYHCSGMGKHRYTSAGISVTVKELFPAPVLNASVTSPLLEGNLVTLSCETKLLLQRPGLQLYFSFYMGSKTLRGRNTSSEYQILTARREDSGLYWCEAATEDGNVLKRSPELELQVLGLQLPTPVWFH
# Experiment: ratio He/Con_1a : He/Con_2b (FcγRIa over FcγRIIb), SPR (Biacore)
row,He_1a/2b (Ia/IIb),Binder
1,0.35,B1
2,0.42,B2
3,0.54,B3
4,0.51,B4
5,0.55,B5
6,0.45,B6
7,0.7,B7
8,0.47,B8
9,-55.6,B9
10,0.66,B10
11,0.57,B11
12,0.52,B12
13,0.73,B13
14,0.65,B14
15,0.69,B15
16,0.28,B16
17,0.54,B17
18,0.52,B18

# Target: T1, FcγRIIa H (FcγRIIa type H, His at …)
# Experiment: SPR (Biacore); He/Con_2aH divided by He/Con_2b (FcγRIIa H against FcγRIIb)
row,He_2aH/2b (IIaH/IIb) [ratio],Binder
1,0.72,B19
2,0.4,B20
3,0.74,B21
4,0.51,B22
5,0.33,B23
6,0.73,B24
7,0.4,B25
8,0.72,B26
9,0.27,B27
10,0.41,B28

# Target: T4, FcγRIa extracellular domain with …
# Experiment: SPR (Biacore), antibody captured, FcγR as analyte; binding relative to GpH7-A5/GpH7-B3/GpL16-k0 = 100
row,He/Con_1a [control = 100],Binder
1,110,B1
2,98.1,B2
3,105,B3
4,106,B4
5,106,B5
6,109,B6
7,104,B7
8,102,B8
9,59.2,B9
10,106,B10
11,100,B11
12,100,B12
13,102,B13
14,99.3,B14
15,103,B15
16,106,B16
17,103,B17
18,104,B18

# Target: T2, FcγRIIb extracellular domain with …
# Experiment: as above
row,He/Con_2b [control = 100],Binder
1,310,B1
2,236,B2
3,193,B3
4,210,B4
5,192,B5
6,243,B6
7,150,B7
8,218,B8
9,-1.1,B9
10,159,B10
11,177,B11
12,192,B12
13,139,B13
14,152,B14
15,148,B15
16,379,B16
17,193,B17
18,200,B18

# Target: T4, FcγRIa extracellular domain with …
# Experiment: as above
# Remark: another data set of the same source
row,He/Con_1a [control = 100],Binder
1,88.3,B29
2,94.5,B30
3,92.3,B31
4,93.6,B32
5,91.8,B33
6,88.8,B34

# Target: T2, FcγRIIb extracellular domain with …
# Experiment: as above
# Remark: another data set of the same source
row,He/Con_2b [control = 100],Binder
1,103,B29
2,111,B30
3,105,B31
4,104,B32
5,106,B33
6,101,B34

# Target: T1, FcγRIIa H (FcγRIIa type H, His at …)
# Experiment: SPR (Biacore), antibody captured on antigen peptide chip, FcγR as analyte; relative to GpH7-A5/GpH7-B3/GpL16-k0 = 100
row,He/Con_2aH (relative binding activity),Binder
1,57.6 % of HeCon Ab (= 100),B19
2,45.9 % of HeCon Ab (= 100),B20
3,37.7 % of HeCon Ab (= 100),B21
4,56.4 % of HeCon Ab (= 100),B22
5,77.1 % of HeCon Ab (= 100),B23
6,53.5 % of HeCon Ab (= 100),B24
7,87.5 % of HeCon Ab (= 100),B25
8,50.9 % of HeCon Ab (= 100),B26
9,59.8 % of HeCon Ab (= 100),B27
10,84.6 % of HeCon Ab (= 100),B28

# Target: T3, FcγRIIb, extracellular domain with …
# Experiment: as above
row,He/Con_2b (relative binding activity),Binder
1,80 % of HeCon Ab (= 100),B19
2,115 % of HeCon Ab (= 100),B20
3,50.7 % of HeCon Ab (= 100),B21
4,110 % of HeCon Ab (= 100),B22
5,232 % of HeCon Ab (= 100),B23
6,73.2 % of HeCon Ab (= 100),B24
7,221 % of HeCon Ab (= 100),B25
8,70.4 % of HeCon Ab (= 100),B26
9,218 % of HeCon Ab (= 100),B27
10,204 % of HeCon Ab (= 100),B28
